Data from US8652473B2, “Antibodies to EGF receptor epitope peptides and uses thereof” (Ludwig Institute for Cancer Research Ltd., priority 2004, dated 2014).
Marks after values point to notes of the source that are not given here. Each block holds one substance with its values, some of them ahead of it.

Experiments:
[1] = test system: mAb 806 binding to immobilized 501-Fc; experiment: ELISA, peptide inhibition of mAb […] binding to 501-Fc; design: species or system human; settings: increasing concentrations of peptide
[2] = target: T1, E^578C EGFR (Homo sapiens, UniProt P00533, E602C); experiment: Scatchard analysis of 125I-EGF binding, BaF/3 E578C; settings: BaF/3 E^578C
T1 construct: expressed in transfected cells
Description: (§1) Single point mutations of the wild-type EGFR were generated using a site-directed mutagenesis kit (Stratagene, La Jolla, Calif.). The template for each mutagenesis was the human EGFR cDNA; (24)) containing the leader sequence followed by a FLAG tag coding sequence, in the mammalian expression vector pcDNA3 (Invitrogen, Carlsbad, Calif.) as described in (4). The automated nucleotide sequencing of each construct was performed to confirm the integrity of each EGF receptor mutation. EGFR expression constructs were transiently expressed in 293 cells (American Type Culture Collection, Manassas, Va.) and the presence of receptor protein determined by staining with 528 and M2 antibodies to confirm expression at the cell surface and to ensure protein folding occurred appropriately (data not shown).
(§2) Wild-type and mutant EGFRs constructs were transfected into the IL-3-dependent murine hemopoietic cell line BaF/3 as described previously (25). […] Background fluorescence was determined by incubating the cells with an irrelevant, class matched primary antibody. […]
(§3) Murine EGF, purified from mouse submaxillary glands (27), was iodinated using Iodogen (28) to a specific activity of 5-8×10^5 cpm/pmol. Ligand binding to cells expressing the wt or mutant EGFR was determined at room temperature in the presence of the […] […] Non-specific binding was determined using a 500-fold excess of unlabelled EGF over ^125I-EGF. […]

[3] = target: T2, Y^246F EGFR (Homo sapiens, UniProt P00533, Y270F); experiment: Scatchard analysis of 125I-EGF binding, BaF/3 Y246F; settings: BaF/3 Y^246F
T2 construct: expressed in transfected cells
Description: as §1
(§4) Wild-type and mutant EGFRs constructs were transfected into the IL-3-dependent murine hemopoietic cell line BaF/3 as described previously (25). Transfected cells were selected in G418 for 10 days. Viable cells were screened for EGFR expression by FACS analysis on a FACStar (Beckton and Dickinson, Franklin Lakes, N.J.) using antibodies to the flag tag (M2: 10 μg/ml in PBS/5% FCS/5 mMEDTA) and/or to the EGFR extracellular domain (mAb528: 10 μg/ml in PBS/5% FCS/5 mMEDTA) followed by Alexa 488-labelled anti-mouse Ig (1:400 final dilution). Background fluorescence was determined by incubating the cells with an irrelevant, class matched primary antibody. Positive pools were sorted for the appropriate level of EGFR expression on a FACS-DIVA (Becton and Dickinson). After final selection, mRNA was isolated from each cell line and all mutations in the EGFR were confirmed by PCR annalysis. […]
as §3

[4] = target: T3, Y^246D EGFR (Homo sapiens, UniProt P00533, Y270D); experiment: Scatchard analysis of 125I-EGF binding, BaF/3 Y246D; settings: BaF/3 Y^246D
T3 construct: expressed in transfected cells
Description: as §1, §4, §3

[5] = target: T4, Y^246W EGFR (Homo sapiens, UniProt P00533, Y270W); experiment: Scatchard analysis of 125I-EGF binding, BaF/3 Y246W; settings: BaF/3 Y^246W
T4 construct: expressed in transfected cells
Description: as §1, §4, §3

[6] = target: T5, V^583D EGFR (Homo sapiens, UniProt P00533, V607D); experiment: Scatchard analysis of 125I-EGF binding, BaF/3 V583D; settings: BaF/3 V^583D
T5 construct: expressed in transfected cells
Description: as §1
(§5) Wild-type and mutant EGFRs constructs were transfected into the IL-3-dependent murine hemopoietic cell line BaF/3 as described previously (25). Transfected cells were selected in G418 for 10 days. Viable cells were screened for EGFR expression by FACS analysis on a FACStar (Beckton and Dickinson, Franklin Lakes, N.J.) using antibodies to the flag tag (M2: 10 μg/ml in PBS/5% FCS/5 mMEDTA) and/or to the EGFR extracellular domain (mAb528: 10 μg/ml in PBS/5% FCS/5 mMEDTA) followed by Alexa 488-labelled anti-mouse Ig (1:400 final dilution). Background fluorescence was determined by incubating the cells with an irrelevant, class matched primary antibody. Positive pools were sorted for the appropriate level of EGFR expression on a FACS-DIVA (Becton and Dickinson). After final selection, mRNA was isolated from each cell line and all mutations in the EGFR were confirmed by PCR annalysis. All cells were routinely passaged in RPMI/10% FCS/10% WEHI3B conditioned medium (26) and 1.5 mg/ml G418.
(§6) Murine EGF, purified from mouse submaxillary glands (27), was iodinated using Iodogen (28) to a specific activity of 5-8×10^5 cpm/pmol. Ligand binding to cells expressing the wt or mutant EGFR was determined at room temperature in the presence of the […] (PAO) (29) by cold saturation experiments. Briefly, cells were incubated in PBS/1% BSA/30 μM PAO with or without increasing amounts of unlabelled EGF (20 pM-5.12 nM) and with a constant amount (300 pM) of ^125I EGF. Non-specific binding was determined using a 500-fold excess of unlabelled EGF over ^125I-EGF. All experimental points were prepared in triplicate. At the end of the incubation, the cells were pelleted and washed twice in ice-cold PBS before transferring to fresh tubes for counting in a Wallac WIZARD γ-counter (PerkinElmer, Boston, Mass.). Scatchard plots and estimates of ligand binding affinities and receptor numbers were obtained using the Radlig program (BioSoft, Cambridge, UK).

[7] = target: T6, wt-EGFR (Homo sapiens, UniProt P00533); experiment: Scatchard analysis of 125I-EGF binding, BaF/3 wt-EGFR
T6 construct: […]; expressed in transfected cells
Description: as §1, §5, §6

[8] = target: T7, L^245C/E^578C EGFR (Homo sapiens, UniProt P00533, E602C/L269C); experiment: Scatchard analysis of 125I-EGF binding, BaF/3 L245C/E578C; settings: BaF/3 L^245C/E^578C; less than 10% of number by FACS or immunoblotting
T7 construct: expressed in transfected cells
Description: as §1, §2, §3

[9] = target: T8, D^563H EGFR (Homo sapiens, UniProt P00533, D587H); experiment: Scatchard analysis of 125I-EGF binding, BaF/3 D563H; settings: BaF/3 D^563H
T8 construct: expressed in transfected cells
Description: as §1, §5, §6

[10] = test system: mAb 806 binding to immobilized 1-501 EGFR fragment; experiment: ELISA, peptide inhibition of mAb […] binding to 1-501 EGFR; design: species or system human; settings: peptide in solution, increasing concentrations
[11] = test system: mAb 806 binding to immobilized 287-302 EGFR peptide; experiment: BIAcore, soluble EGFR peptides blocking mAb […] binding; design: species or system human; settings: mAb […] 500 nM; soluble peptide 5 and 10 μM; amine coupling
[12] = test system: mAb 806; experiment: Binding of yeast surface displayed EGFR 273-621 point mutants to mAb […] (flow cytometry); design: species or system mouse; key: ++ indicates wild type binding; +, intermediate binding; −, binding equal to negative control; settings: EGFR Mutant (Library), 273-621 on yeast; 75 nM 806
Description: Out of 100 clones sequenced, roughly 20% contained multiple mutations and were omitted from subsequent analysis. […] All mutations are localized to the disulfide-bonded loop between cysteines 287 and 302, as has been previously determined (34). […] To verify the results from the fine epitope mapping library, alanine scanning through site-directed mutagenesis (SDM) was performed on the entire loop 287-302 (TABLE 7, right column). All sites with loss of binding by alanine scanning (287, 293, 298, and 302) correspond to mutants isolated from the library. […] Since an average of 6-7 amino acid substitutions are accessible by single nucleotide mutagenesis, a larger range of physicochemical diversity can be sampled compared to alanine scanning. […] The C287R substitution raises this dissociation constant to 127 nM (68% confidence interval of 103-160 nM), which gives a ΔΔG value of +2.4 kcal/mol when compared to wild-type and, in alanine scanning terms, is an intermediate loss of binding (36).
The epitope mapping library was constructed using the Stratagene GeneMorph® random mutagenesis kit to give a low mutagenesis rate. The template used for library construction was a pCT302 backbone containing EGFR fragment 273-621, with a C283A mutation to prevent disulfide mispairing, inserted for yeast display (27). The PCR products were gel purified and extracted using a Qiagen Qiaquick gel extraction kit. The library was transformed into Saccharomyces cerevisiae strain EBY100 (28) by electroporation (40) and homologous recombination (41) using a Bio-Rad (Richmond, Calif.) Gene Pulser Transfection Apparatus. […] Growth and expression of the library using yeast surface display was performed as previously described (28).
Anti-c-myc chicken IgY fraction was purchased from Molecular Probes (Eugene, Oreg.). An appropriate number of yeast cells (at least 10× library size) were washed with FACS buffer (phosphate buffered saline containing 1 mg/ml bovine serum albumin). The cells were incubated with 4 μg/ml anti-c-myc chicken IgY and the appropriate concentration of mAb for 30 min at 25° C. The cells were then washed with FACS buffer and incubated with 1:25 dilution phycoerythrin-labeled goat anti-mouse IgG (Sigma) and 1:100 dilution Alexa Fluor® 488 goat anti-chicken IgG (Molecular Probes) for 30 min at 4° C. The labeled cells were rinsed, and cell libraries were sorted using a MoFlo FACS machine at the MIT flow cytometry core facility.
Plasmids from the sorted library populations were recovered using Zymoprep™ and sequenced at the MIT Biopolymers Laboratory. Site-directed mutants were made using QuickChange® site-directed mutagenesis (Stratagene). Single clones were transformed into yeast using EZ Yeast Transformation (Zymo Research) and grown in minimal media (yeast nitrogen base, casein hydrolysate, dextrose, and phosphate buffer pH 7.4) overnight. Yeast surface protein expression was induced by transferring to minimal media with galactose and incubating overnight. For each clone, 1×10^6 cells were labeled as before with anti-c-myc chicken IgY, the appropriate mAb, and secondary fluorescent antibodies. Fluorescence data was obtained using a Coulter Epics XL flow cytometer (Beckman-Coulter) and was analyzed using DakoCytomation Summit™ software

[13] = high affinity sites, listed as 125I-EGF

Substance: EGF: Murine EGF purified from mouse submaxillary glands, iodinated for binding; EGFR ligand
R/cell (from Bmax) [2]: 3.45 +/− 0.12 R/cell × 10^−4 | [EGF] at which 500R/cell are occupied ([2]; calculated from Kd and Bmax): ~80 pM | % of sites (Kd2) [3]: (100) % | R/cell (from Bmax) [3]: 3.0 +/− 0.2 R/cell × 10^−4 | [EGF] at which 500R/cell are occupied ([3]; calculated from Kd and Bmax): 30 pM | % of sites (Kd2) [4]: (100) % | R/cell (from Bmax) [4]: 1.2 +/− 0.1 R/cell × 10^−4 | [EGF] at which 500R/cell are occupied ([4]; calculated from Kd and Bmax): 400 pM | % of sites (Kd2) [5]: (100) % | R/cell (from Bmax) [5]: 2.9 +/− 0.2 R/cell × 10^−4 | [EGF] at which 500R/cell are occupied ([5]; calculated from Kd and Bmax): ~60 pM | R/cell (from Bmax) [6]: 3.8 +/− 0.71 R/cell × 10^−4 | [EGF] at which 500R/cell are occupied ([6]; calculated from Kd and Bmax): <1 pM | % of sites (Kd1) [6, 13]: 12.6 +/− 4% | % of sites (Kd2) ([6]; low affinity sites): 90.8 +/− 1.9% | R/cell (from Bmax) [7]: 3.4 +/− 0.7 R/cell × 10^−4 | [EGF] at which 500R/cell are occupied ([7]; calculated from Kd and Bmax): ~15 pM | % of sites (Kd1) [7, 13]: 2.6 +/− 0.4% | % of sites (Kd2) ([7]; low affinity sites): 97.5 +/− 0.49% | R/cell (from Bmax) [8]: 0.37 +/− 0.002^b R/cell × 10^−4 | R/cell (from Bmax) [9]: 2.3 +/− 0.8 R/cell × 10^−4 | [EGF] at which 500R/cell are occupied ([9]; calculated from Kd and Bmax): 8 pM | % of sites (Kd1) ([9]; high affinity sites): 4.4 +/− 0.7) % | % of sites (Kd2) ([9]; low affinity sites): 96.4 +/− 0.7%

Substance: CGADSYEM (epitope peptide) [N-terminal fragment from cyanogen bromide cleavage of the 287-302 peptide]
inhibition of mAb […] binding to 501-Fc (ELISA) [1]: incapable of inhibiting

Substance: CGADSYEMEEDG (epitope peptide) [287-298 EGFR peptide]
inhibition of mAb […] binding to immobilized 1-501 fragment (ELISA) [10]: did not inhibit | inhibition of mAb […] binding to immobilized 287-302 EGFR peptide (BIAcore) [11]: unable to prevent binding

Substance: C287Y: yeast displayed EGFR 273-621 point mutant from library
mAb […] Binding [12]: +

Substance: R300P: yeast displayed EGFR 273-621 point mutant from library
mAb […] Binding [12]: −

Other lines, results leading:

inhibition of mAb […] binding to 501-Fc (ELISA) [1]: incapable of inhibiting
Substance: EEGVRKC (epitope peptide) [C-terminal (EEGVRKC), C-terminal fragment from cyanogen bromide cleavage of the 287-302 peptide]

inhibition of mAb […] binding to immobilized 287-302 EGFR peptide (BIAcore) [11]: weakly inhibit
Substance: CGADSYEMEEDGVRK (epitope peptide) [287-301 EGFR peptide]

mAb […] Binding [12]: +
Substance: E293G: yeast displayed EGFR 273-621 point mutant from library

mAb […] Binding [12]: +
Substance: C302F: yeast displayed EGFR 273-621 point mutant from library
